Series [1] deals with Aquifex aeolicus TsaD2B2 tetramer (Aquifex aeolicus) (UniProt O66986).
Series [2] concerns the target Aquifex aeolicus TsaD^Δ34–382B2 tetramer (Aquifex aeolicus) (UniProt O66986).
Series [3] addresses Aquifex aeolicus TsaD2B^mut2 tetramer (Aquifex aeolicus | Thermotoga maritima) (UniProt O66986).
Substrate in series [4]: Nc1ncnc2c1ncn2[C@@H]1O[C@H](COP(=O)(O)OP(=O)(O)OP(=O)(O)O)[C@@H](O)[C@H]1O
The series can be described thus: NADH-coupled ATPase assay. It counts as biochemical, Aquifex aeolicus. As to conditions: 10 uM TsaE alone, 10 mM MgCl2, 100 mM KCl, pH 7.5, 37 °C. The source says: NADH-coupled ATPase assay on A. aeolicus TsaE (AaTsaE)

Substrate in series [5]: Nc1ncnc2c1ncn2[C@@H]1O[C@H](COP(=O)(O)OP(=O)(O)OP(=O)(O)O)[C@@H](O)[C@H]1O
Kind of series: NADH-coupled ATPase assay. To be noted: 10 uM TsaE with 5 uM TsaD2B2, no tRNA, 10 mM MgCl2, 100 mM KCl, pH 7.5, 37 °C. It counts as biochemical, Aquifex aeolicus. From the text: NADH-coupled ATPase assay on A. aeolicus TsaD2B2E2

Chain of Aquifex aeolicus TsaD2B^mut2 tetramer (Aquifex aeolicus | Thermotoga maritima) (O66986 whole entry, looked up): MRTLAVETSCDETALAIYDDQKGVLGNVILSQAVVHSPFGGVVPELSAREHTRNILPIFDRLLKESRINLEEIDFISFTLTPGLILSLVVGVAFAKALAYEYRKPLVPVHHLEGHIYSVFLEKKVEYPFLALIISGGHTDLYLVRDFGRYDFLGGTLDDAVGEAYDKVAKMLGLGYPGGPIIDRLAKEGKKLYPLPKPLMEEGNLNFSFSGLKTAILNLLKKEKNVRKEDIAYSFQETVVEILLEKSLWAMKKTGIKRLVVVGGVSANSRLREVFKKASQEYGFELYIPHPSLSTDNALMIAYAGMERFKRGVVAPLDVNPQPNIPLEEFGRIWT
Chain of Aquifex aeolicus TsaD2B2 tetramer (Aquifex aeolicus) (O66986 whole entry, chain 1 of 2): as the sequence (O66986 whole entry, looked up) above
Chain of Aquifex aeolicus TsaD2B2 tetramer (Aquifex aeolicus) (partner O66494, as listed by the source, chain 2 of 2): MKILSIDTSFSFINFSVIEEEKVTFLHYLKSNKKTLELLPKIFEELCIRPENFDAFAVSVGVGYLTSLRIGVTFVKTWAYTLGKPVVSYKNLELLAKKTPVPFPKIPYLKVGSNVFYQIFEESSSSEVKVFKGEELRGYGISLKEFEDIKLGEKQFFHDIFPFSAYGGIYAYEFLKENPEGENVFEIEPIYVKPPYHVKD
Chain of Aquifex aeolicus TsaD^Δ34–382B2 tetramer (Aquifex aeolicus) (O66986 other isoform, or with tags, fused parts or gaps mutant, chain 1 of 2): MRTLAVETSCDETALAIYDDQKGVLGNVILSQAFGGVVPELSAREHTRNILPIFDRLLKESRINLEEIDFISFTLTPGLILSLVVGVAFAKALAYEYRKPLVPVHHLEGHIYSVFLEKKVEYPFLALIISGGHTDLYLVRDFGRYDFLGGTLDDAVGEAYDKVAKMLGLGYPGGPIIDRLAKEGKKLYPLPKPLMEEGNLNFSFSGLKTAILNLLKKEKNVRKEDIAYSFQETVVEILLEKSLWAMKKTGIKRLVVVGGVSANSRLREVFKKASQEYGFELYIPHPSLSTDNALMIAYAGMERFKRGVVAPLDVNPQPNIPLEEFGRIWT
Chain of Aquifex aeolicus TsaD^Δ34–382B2 tetramer (Aquifex aeolicus) (partner O66494, as listed by the source mutant, chain 2 of 2): as the sequence (partner O66494, as listed by the source, chain 2 of 2) above

B1: Aquifex aeolicus TsaE (enzyme)
chain: MELLKEVILESEEDTYKLAEEIAQLLKGSEVICLRGTLGAGKTTFVKALAKALKVKNPSAVRSPTFTLVNEYETDKGKLIHIDLYRVPDFDYSEFIGEGILAVEWEERDKPCDIILEIEILDENKRKVRIYRK
Take B1: in series [1], the Vmax of ATP to ADP hydrolysis by 10 μM TsaE with 5 μM TsaD2B2 (NADH-coupled assay, 37 °C); TsaE alone 0.0374 worked out at 0.0982 µM/s and the kcat of ATP to ADP hydrolysis by 10 μM TsaE with 5 μM TsaD2B2 (NADH-coupled assay, 37 °C); TsaE alone 0.007 was found to be 0.02 s⁻¹. For the same molecule, in series [2], the Vmax of ATP to ADP hydrolysis by 10 μM TsaE with 5 μM TsaD^Δ34–382B2 (NADH-coupled assay, 37 °C) was determined as 0.219 µM/s and the kcat of ATP to ADP hydrolysis by 10 μM TsaE with 5 μM TsaD^Δ34–382B2 (NADH-coupled assay, 37 °C) worked out at 0.044 s⁻¹. Also, in series [3], the Vmax of ATP to ADP hydrolysis by 10 μM TsaE with 5 μM TsaD2B^mut2 (NADH-coupled assay, 37 °C) is 0.125 µM/s and the kcat of ATP to ADP hydrolysis by 10 μM TsaE with 5 μM TsaD2B^mut2 (NADH-coupled assay, 37 °C) worked out at 0.025 s⁻¹.

B2: A. aeolicus TsaE (AaTsaE) (Aquifex aeolicus VF5) (protein)
chain: MELLKEVILESEEDTYKLAEEIAQLLKGSEVICLRGTLGAGKTTFVKALAKALKVKNPSAVRSPTFTLVNEYETDKGKLIHIDLYRVPDFDYSEFIGEGILAVEWEERDKPCDIILEIEILDENKRKVRIYRK
notes: recombinant from E. coli (plasmid pET24d-BC11_Eop); monomer
For the molecule B2, in series [4], the Michaelis constant (Km) (as a rule, the concentration of substrate that gives half-maximal velocity) worked out at 96 ± 44.9 µM; the Vmax (in general, the top rate of the reaction or transport when substrate is in excess) was determined as 2.24 µM/min; the kcat (usually the number of substrate molecules converted per active site and unit of time at saturation) worked out at 0.007 ± 0.0007 s⁻¹; the kcat/Km (usually the second-order rate constant that governs catalysis at low substrate concentration) was found to be 78 M⁻¹ s⁻¹.

B3: A. aeolicus TsaD2B2E2 (Aquifex aeolicus VF5) (protein)
chain: MELLKEVILESEEDTYKLAEEIAQLLKGSEVICLRGTLGAGKTTFVKALAKALKVKNPSAVRSPTFTLVNEYETDKGKLIHIDLYRVPDFDYSEFIGEGILAVEWEERDKPCDIILEIEILDENKRKVRIYRK
notes: recombinant from E. coli; with tRNA N6-adenosine threonylcarbamoyltransferase; tRNA threonylcarbamoyladenosine biosynthesis protein TsaB
With B3, in series [5], the Km came to 228 ± 47.9 µM, the Vmax was 5.89 µM/min, the kcat is 0.02 ± 0.0012 s⁻¹ and the kcat/Km is 86 M⁻¹ s⁻¹.

For the origin of these results see article PMC11648230, “Structure–function analysis of tRNA t^6A-catalysis, assembly, and thermostability of Aquifex aeolicus TsaD2B2 tetramer in complex with TsaE” (The Journal of Biological Chemistry, 2024).
